Assay results taken from paper PMC5128726, “Mechanism and Regulation of DNA-Protein Crosslink Repair by the DNA-Dependent Metalloprotease SPRTN”.
Numbering of substitutions follows the chain as printed.

T1: SPRTN 1-199 (Homo sapiens, UniProt Q9H040 1-199)
T1 sequence: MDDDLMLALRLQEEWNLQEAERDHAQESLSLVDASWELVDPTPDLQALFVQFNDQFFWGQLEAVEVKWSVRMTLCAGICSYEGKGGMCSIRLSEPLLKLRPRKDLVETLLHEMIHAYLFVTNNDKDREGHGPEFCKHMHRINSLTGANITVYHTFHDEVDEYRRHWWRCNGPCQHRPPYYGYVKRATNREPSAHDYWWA

T2: SPRTN 200-250 (Homo sapiens, UniProt Q9H040 200-250)
T2 sequence: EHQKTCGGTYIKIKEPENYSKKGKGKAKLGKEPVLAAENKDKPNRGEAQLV

T3: SPRTN WT (Homo sapiens, UniProt Q9H040 1-489)
T3 sequence: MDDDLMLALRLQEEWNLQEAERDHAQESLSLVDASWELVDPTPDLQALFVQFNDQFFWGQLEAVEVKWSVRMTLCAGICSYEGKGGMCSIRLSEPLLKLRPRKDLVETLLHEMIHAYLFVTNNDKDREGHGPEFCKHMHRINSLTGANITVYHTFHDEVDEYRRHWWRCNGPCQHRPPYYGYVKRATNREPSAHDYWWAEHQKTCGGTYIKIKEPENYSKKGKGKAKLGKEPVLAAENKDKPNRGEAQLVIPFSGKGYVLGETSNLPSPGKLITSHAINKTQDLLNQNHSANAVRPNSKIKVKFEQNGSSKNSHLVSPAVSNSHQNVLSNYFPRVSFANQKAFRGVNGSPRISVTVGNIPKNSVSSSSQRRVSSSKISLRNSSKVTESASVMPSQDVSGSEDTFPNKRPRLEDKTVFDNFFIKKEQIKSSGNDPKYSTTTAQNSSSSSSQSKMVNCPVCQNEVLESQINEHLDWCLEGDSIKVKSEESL

T4: SPRTN 247-489 (Homo sapiens, UniProt Q9H040 247-489)
T4 sequence: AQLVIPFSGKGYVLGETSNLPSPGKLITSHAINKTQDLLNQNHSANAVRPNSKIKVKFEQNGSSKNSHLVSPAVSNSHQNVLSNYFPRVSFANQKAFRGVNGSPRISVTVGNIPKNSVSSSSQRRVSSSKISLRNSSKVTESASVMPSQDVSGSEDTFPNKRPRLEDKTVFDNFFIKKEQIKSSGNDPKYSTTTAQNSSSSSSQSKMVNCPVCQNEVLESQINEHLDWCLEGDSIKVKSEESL

T5: SPRTN-EQ (Homo sapiens, UniProt Q9H040 1-489, E112Q)
T5 sequence: T3 sequence with E112Q

B1: Alexa488 30-mer ss oligonucleotide (ssDNA)
DNA: ACGCTGCCGAATTCTACCAGTGCCTTGCTA
B2: 15-mer ssDNA (ssDNA)
DNA: ACGCTGCCGAATTCT

Experiments:
SPRTN 1-199 = molecular target: T1, SPRTN 1-199; test: EMSA; 250 nM DNA, 0.25-1 uM protein; Oligo EMSA: protein in 250 mM NaCl, 50 mM HEPES pH 7.5, 10% glycerol mixed 1:1 with DNA in 0.2 mg/ml BSA, 15 uM (so in the source) HEPES pH 7.5; 20 min on ice; 6% PAGE. Phage DNA: 0.8% agarose, 4 C; details: protein: recombinant; tags: N-terminal GST, C-terminal Strep; label: 5' Alexa488
SPRTN 200-250 = molecular target: T2, SPRTN 200-250; test: as above; details: protein: recombinant; tags: GST; label: 5' Alexa488
SPRTN WT = molecular target: T3, SPRTN WT; test: EMSA; 250 nM DNA, 0.5-1 uM protein; Oligo EMSA: protein in 250 mM NaCl, 50 mM HEPES pH 7.5, 10% glycerol mixed 1:1 with DNA in 0.2 mg/ml BSA, 15 uM (so in the source) HEPES pH 7.5; 20 min on ice; 6% PAGE. Phage DNA: 0.8% agarose, 4 C; details: protein: recombinant; tags: N-terminal GST, C-terminal Strep; label: 5' Alexa488
SPRTN 247-489 = molecular target: T4, SPRTN 247-489; test: as above; details: protein: recombinant; label: 5' Alexa488
SPRTN-EQ = molecular target: T5, SPRTN-EQ; test: SAXS; 1:1.2 protein:DNA; Rg +8-10 A, Dmax +30 A; 50 mM HEPES pH 7.5, 75 mM KCl, 1% glycerol; Oligo EMSA: protein in 250 mM NaCl, 50 mM HEPES pH 7.5, 10% glycerol mixed 1:1 with DNA in 0.2 mg/ml BSA, 15 uM (so in the source) HEPES pH 7.5; 20 min on ice; 6% PAGE. Phage DNA: 0.8% agarose, 4 C; details: protein: recombinant; tags: N-terminal GST, C-terminal Strep

Binder	binding result (SPRTN 1-199)	binding result (SPRTN 200-250)	binding result (SPRTN WT)	binding result (SPRTN 247-489)	binding result (SPRTN-EQ)
B1	no binding	binds	binds	no binding	
B2					binds
